Source: patent US20160084825A1
Values joined by “and” are separate entries in the source; they are usually repeats but may differ in a detail not shown here. Identical values can stand only once.

How the values were obtained:
[1] = biological target: wild-type LFA-1 (αLβ2) on 293T cells (UniProt P20701); assay: flow cytometry (FACS), LFA-1 on transfected 293T cells
[2] = biological target: LFA-1 disulfide mutant #9 (αL M1064C / β2 N678C) on 293T cells (UniProt P20701); assay: as above
[3] = biological target: LFA-1 disulfide mutant #4 (αL Q1063C / β2 G676C) on 293T cells (UniProt P20701); assay: as above
Sequence of LFA-1 disulfide mutant #4 (αL Q1063C / β2 G676C) on 293T cells (P20701 26-1170 Q1088C, chain 1 of 2): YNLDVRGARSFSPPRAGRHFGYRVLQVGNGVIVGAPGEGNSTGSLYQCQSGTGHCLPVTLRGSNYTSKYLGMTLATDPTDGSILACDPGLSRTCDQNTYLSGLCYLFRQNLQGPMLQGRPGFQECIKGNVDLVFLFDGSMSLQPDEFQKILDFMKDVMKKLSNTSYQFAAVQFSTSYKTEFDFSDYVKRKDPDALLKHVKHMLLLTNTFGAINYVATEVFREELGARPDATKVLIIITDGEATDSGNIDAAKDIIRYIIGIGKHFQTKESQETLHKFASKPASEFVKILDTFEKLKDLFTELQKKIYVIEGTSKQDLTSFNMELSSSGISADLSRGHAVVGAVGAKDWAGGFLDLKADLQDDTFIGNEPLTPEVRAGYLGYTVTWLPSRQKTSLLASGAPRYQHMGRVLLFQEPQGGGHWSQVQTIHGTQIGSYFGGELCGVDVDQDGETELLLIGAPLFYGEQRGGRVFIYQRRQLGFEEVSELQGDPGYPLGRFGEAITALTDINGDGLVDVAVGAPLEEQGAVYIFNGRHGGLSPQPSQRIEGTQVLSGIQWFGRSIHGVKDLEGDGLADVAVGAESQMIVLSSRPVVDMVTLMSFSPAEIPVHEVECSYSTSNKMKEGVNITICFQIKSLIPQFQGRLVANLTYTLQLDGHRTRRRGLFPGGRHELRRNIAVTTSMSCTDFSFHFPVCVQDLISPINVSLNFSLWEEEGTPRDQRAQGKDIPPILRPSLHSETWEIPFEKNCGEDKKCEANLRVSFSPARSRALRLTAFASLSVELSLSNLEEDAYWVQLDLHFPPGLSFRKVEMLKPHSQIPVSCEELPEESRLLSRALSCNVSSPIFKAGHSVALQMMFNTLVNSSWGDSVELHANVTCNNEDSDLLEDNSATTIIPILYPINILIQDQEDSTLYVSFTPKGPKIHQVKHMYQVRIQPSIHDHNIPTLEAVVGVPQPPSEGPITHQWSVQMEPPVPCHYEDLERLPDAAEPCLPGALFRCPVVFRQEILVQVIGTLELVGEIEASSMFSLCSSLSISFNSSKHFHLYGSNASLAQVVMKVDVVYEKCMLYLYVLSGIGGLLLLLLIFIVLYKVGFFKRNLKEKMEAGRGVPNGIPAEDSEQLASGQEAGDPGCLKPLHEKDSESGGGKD
Sequence of LFA-1 disulfide mutant #4 (αL Q1063C / β2 G676C) on 293T cells (P05107 23-769 G698C, chain 2 of 2, further chain): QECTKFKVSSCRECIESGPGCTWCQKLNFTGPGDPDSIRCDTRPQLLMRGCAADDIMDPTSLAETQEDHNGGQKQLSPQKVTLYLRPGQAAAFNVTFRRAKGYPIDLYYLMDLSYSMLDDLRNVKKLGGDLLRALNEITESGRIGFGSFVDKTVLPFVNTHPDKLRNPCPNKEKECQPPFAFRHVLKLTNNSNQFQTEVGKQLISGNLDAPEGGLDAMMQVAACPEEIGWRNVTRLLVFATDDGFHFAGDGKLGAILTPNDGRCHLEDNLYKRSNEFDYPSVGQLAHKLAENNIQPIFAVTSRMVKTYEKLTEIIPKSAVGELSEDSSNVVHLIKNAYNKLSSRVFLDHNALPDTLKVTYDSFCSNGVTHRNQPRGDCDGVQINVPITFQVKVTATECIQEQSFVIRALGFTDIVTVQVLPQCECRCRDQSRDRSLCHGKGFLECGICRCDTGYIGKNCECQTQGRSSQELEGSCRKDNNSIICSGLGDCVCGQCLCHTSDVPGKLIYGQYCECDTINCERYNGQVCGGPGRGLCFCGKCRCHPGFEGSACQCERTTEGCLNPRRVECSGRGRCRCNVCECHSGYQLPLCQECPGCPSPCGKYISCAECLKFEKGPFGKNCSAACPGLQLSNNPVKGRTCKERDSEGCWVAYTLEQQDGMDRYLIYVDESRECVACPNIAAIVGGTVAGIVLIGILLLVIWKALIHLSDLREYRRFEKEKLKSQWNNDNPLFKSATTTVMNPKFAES

[4] = biological target: LFA-1 disulfide mutant #8 (αL Q1063C / β2 N678C) on 293T cells (UniProt P20701); assay: as above
Sequence of LFA-1 disulfide mutant #8 (αL Q1063C / β2 N678C) on 293T cells (P20701 26-1170 Q1088C, chain 1 of 2): as the sequence (P20701 26-1170 Q1088C, chain 1 of 2) above
Sequence of LFA-1 disulfide mutant #8 (αL Q1063C / β2 N678C) on 293T cells (P05107 23-769 N700C, chain 2 of 2, further chain): as the sequence (P05107 23-769 G698C, chain 2 of 2, further chain) above, with C676G, N678C counted along it

[5] = biological target: LFA-1 disulfide mutant #6 (αL Q1063C / β2 P677C) on 293T cells (UniProt P20701); assay: as above
Sequence of LFA-1 disulfide mutant #6 (αL Q1063C / β2 P677C) on 293T cells (P20701 26-1170 Q1088C, chain 1 of 2): as the sequence (P20701 26-1170 Q1088C, chain 1 of 2) above
Sequence of LFA-1 disulfide mutant #6 (αL Q1063C / β2 P677C) on 293T cells (P05107 23-769 P699C, chain 2 of 2, further chain): as the sequence (P05107 23-769 G698C, chain 2 of 2, further chain) above, with C676G, P677C counted along it

[6] = biological target: LFA-1 disulfide mutant #2 (αL E1061C / β2 G676C) on 293T cells (UniProt P20701); assay: as above
Sequence of LFA-1 disulfide mutant #2 (αL E1061C / β2 G676C) on 293T cells (P20701 26-1170 E1086C, chain 1 of 2): as the sequence (P20701 26-1170 Q1088C, chain 1 of 2) above, with E1061C, C1063Q counted along it
Sequence of LFA-1 disulfide mutant #2 (αL E1061C / β2 G676C) on 293T cells (P05107 23-769 G698C, chain 2 of 2, further chain): as the sequence (P05107 23-769 G698C, chain 2 of 2, further chain) above

[7] = biological target: LFA-1 disulfide mutant #5 (αL K1062C / β2 P677C) on 293T cells (UniProt P20701); assay: as above
Sequence of LFA-1 disulfide mutant #5 (αL K1062C / β2 P677C) on 293T cells (P20701 26-1170 K1087C, chain 1 of 2): as the sequence (P20701 26-1170 Q1088C, chain 1 of 2) above, with K1062C, C1063Q counted along it
Sequence of LFA-1 disulfide mutant #5 (αL K1062C / β2 P677C) on 293T cells (P05107 23-769 P699C, chain 2 of 2, further chain): as the sequence (P05107 23-769 G698C, chain 2 of 2, further chain) above, with C676G, P677C counted along it

[8] = biological target: LFA-1 disulfide mutant #3 (αL K1062C / β2 G676C) on 293T cells (UniProt P20701); assay: as above
Sequence of LFA-1 disulfide mutant #3 (αL K1062C / β2 G676C) on 293T cells (P20701 26-1170 K1087C, chain 1 of 2): as the sequence (P20701 26-1170 Q1088C, chain 1 of 2) above, with K1062C, C1063Q counted along it
Sequence of LFA-1 disulfide mutant #3 (αL K1062C / β2 G676C) on 293T cells (P05107 23-769 G698C, chain 2 of 2, further chain): as the sequence (P05107 23-769 G698C, chain 2 of 2, further chain) above

[9] = biological target: LFA-1 disulfide mutant #7 (αL M1064C / β2 P677C) on 293T cells (UniProt P20701); assay: as above
Sequence of LFA-1 disulfide mutant #7 (αL M1064C / β2 P677C) on 293T cells (P20701 26-1170 M1089C, chain 1 of 2): as the sequence (P20701 26-1170 Q1088C, chain 1 of 2) above, with C1063Q, M1064C counted along it
Sequence of LFA-1 disulfide mutant #7 (αL M1064C / β2 P677C) on 293T cells (P05107 23-769 P699C, chain 2 of 2, further chain): as the sequence (P05107 23-769 G698C, chain 2 of 2, further chain) above, with C676G, P677C counted along it

[10] = biological target: wild-type LFA-1 (αLβ2) on 293T cells (UniProt P20701); assay: flow cytometry (FACS), LFA-1 on transfected 293T cells; the reference itself
[11] = biological target: LFA-1 disulfide mutant #4 (αL Q1063C / β2 G676C) on 293T cells (UniProt P20701); assay: flow cytometry (FACS), LFA-1 on transfected 293T cells; reference wild-type LFA-1
[12] = biological target: LFA-1 disulfide mutant #8 (αL Q1063C / β2 N678C) on 293T cells (UniProt P20701); assay: as above
[13] = biological target: LFA-1 disulfide mutant #6 (αL Q1063C / β2 P677C) on 293T cells (UniProt P20701); assay: as above
[14] = biological target: LFA-1 disulfide mutant #2 (αL E1061C / β2 G676C) on 293T cells (UniProt P20701); assay: as above
[15] = biological target: LFA-1 disulfide mutant #5 (αL K1062C / β2 P677C) on 293T cells (UniProt P20701); assay: as above
[16] = biological target: LFA-1 disulfide mutant #3 (αL K1062C / β2 G676C) on 293T cells (UniProt P20701); assay: as above
[17] = biological target: LFA-1 disulfide mutant #7 (αL M1064C / β2 P677C) on 293T cells (UniProt P20701); assay: as above
[18] = biological target: LFA-1 disulfide mutant #9 (αL M1064C / β2 N678C) on 293T cells (UniProt P20701); assay: as above

Sequence of wild-type LFA-1 (αLβ2) on 293T cells (P20701 26-1170 limits assumed, chain 1 of 2): as the sequence (P20701 26-1170 Q1088C, chain 1 of 2) above, with C1063Q counted along it
Sequence of wild-type LFA-1 (αLβ2) on 293T cells (P05107 23-769 limits assumed, chain 2 of 2, further chain): as the sequence (P05107 23-769 G698C, chain 2 of 2, further chain) above, with C676G counted along it
Sequence of LFA-1 disulfide mutant #9 (αL M1064C / β2 N678C) on 293T cells (P20701 26-1170 M1089C, chain 1 of 2): as the sequence (P20701 26-1170 Q1088C, chain 1 of 2) above, with C1063Q, M1064C counted along it
Sequence of LFA-1 disulfide mutant #9 (αL M1064C / β2 N678C) on 293T cells (P05107 23-769 N700C, chain 2 of 2, further chain): as the sequence (P05107 23-769 G698C, chain 2 of 2, further chain) above, with C676G, N678C counted along it

**Q.** What does the source list for X63 (antibody)?
**A.** Mean (FACS mean fluorescence) [1]: 5.96; Mean (FACS mean fluorescence) [2]: 4.06

**Q.** Which results are given for KIM127 (antibody)?
**A.** Mean (FACS mean fluorescence) [3]: 12.1 and 12.2; Mean value normalized with expression level (MHM24) [3]: 0.06 and 0.074; Mean (FACS mean fluorescence) [4]: 8.54 and 12.2; Mean (FACS mean fluorescence) [5]: 10.9 and 14.4; Mean value normalized with expression level (MHM24) [5]: 0.037 and 0.08; Mean (FACS mean fluorescence) [6]: 8.27 and 9.59; Mean value normalized with expression level (MHM24) [6]: 0.016 and 0.044; Mean (FACS mean fluorescence) [1]: 12.2 and 13.9; Mean value normalized with expression level (MHM24) [1]: 0.035 and 0.055; Mean (FACS mean fluorescence) [7]: 10.3 and 9.36; Mean value normalized with expression level (MHM24) [7]: 0.036 and 0.04; Mean (FACS mean fluorescence) [8]: 11.1 and 15.8; Mean value normalized with expression level (MHM24) [8]: 0.039 and 0.093; Mean (FACS mean fluorescence) [9]: 10.8 and 11.8; Mean value normalized with expression level (MHM24) [9]: 0.033 and 0.053; Mean (FACS mean fluorescence) [2]: 10 and 12.1; Mean value normalized with expression level (MHM24) [2]: 0.023 and 0.047; normalized mean relative to wild-type (WT is set to 1.0) [10]: 1; normalized mean relative to wild-type (WT is set to 1.0) [11]: 1.69 and 1.35; normalized mean relative to wild-type (WT is set to 1.0) [12]: 0.61 and 1.49; normalized mean relative to wild-type (WT is set to 1.0) [13]: 1.06 and 1.47; normalized mean relative to wild-type (WT is set to 1.0) [14]: 0.46 and 0.81; normalized mean relative to wild-type (WT is set to 1.0) [15]: 1.03 and 0.73; normalized mean relative to wild-type (WT is set to 1.0) [16]: 1.12 and 1.69; normalized mean relative to wild-type (WT is set to 1.0) [17]: 0.95 and 0.96; normalized mean relative to wild-type (WT is set to 1.0) [18]: 0.66 and 0.85

**Q.** Which results are given for MHM24 (antibody)?
**A.** Mean (FACS mean fluorescence) [3]: 95.9; Mean (FACS mean fluorescence) [4]: 88.5; Mean (FACS mean fluorescence) [5]: 117; Mean (FACS mean fluorescence) [6]: 97.4; Mean (FACS mean fluorescence) [7]: 102; Mean (FACS mean fluorescence) [8]: 117; Mean (FACS mean fluorescence) [9]: 126; Mean (FACS mean fluorescence) [2]: 147

**Q.** Which results are given for m24 (antibody)?
**A.** Mean (FACS mean fluorescence) [3]: 47.8; Mean value normalized with expression level (MHM24) [3]: 0.46; Mean (FACS mean fluorescence) [4]: 38.6; Mean value normalized with expression level (MHM24) [4]: 0.4; Mean (FACS mean fluorescence) [5]: 52.3; Mean value normalized with expression level (MHM24) [5]: 0.42; Mean (FACS mean fluorescence) [6]: 35.8; Mean value normalized with expression level (MHM24) [6]: 0.33; Mean (FACS mean fluorescence) [1]: 66.3; Mean value normalized with expression level (MHM24) [1]: 0.39; Mean (FACS mean fluorescence) [7]: 43.5; Mean value normalized with expression level (MHM24) [7]: 0.39; Mean (FACS mean fluorescence) [8]: 57.4; Mean value normalized with expression level (MHM24) [8]: 0.46; Mean (FACS mean fluorescence) [9]: 53; Mean value normalized with expression level (MHM24) [9]: 0.39; Mean (FACS mean fluorescence) [2]: 57.1; Mean value normalized with expression level (MHM24) [2]: 0.36; normalized mean relative to wild-type (WT is set to 1.0) [10]: 1; normalized mean relative to wild-type (WT is set to 1.0) [11]: 1.18; normalized mean relative to wild-type (WT is set to 1.0) [12]: 1; normalized mean relative to wild-type (WT is set to 1.0) [13]: 1.06; normalized mean relative to wild-type (WT is set to 1.0) [14]: 0.83; normalized mean relative to wild-type (WT is set to 1.0) [15]: 0.99; normalized mean relative to wild-type (WT is set to 1.0) [16]: 1.17; normalized mean relative to wild-type (WT is set to 1.0) [17]: 0.99; normalized mean relative to wild-type (WT is set to 1.0) [18]: 0.92
